Measured values from paper PMC3553496 (Science signaling, 2011).
One block for each binder: values may come before it.

How the values were obtained:
Test in all cases: peptide or protein array
[1] = molecular target: T1, Cathepsin B peptide (18-mer) (human)
T1 peptide: CGTFLGGPKPPQRVMFTE

[2] = molecular target: T2, Chromodomain helicase-DNA binding protein 3 peptide (18-mer) (human)
T2 peptide: YLNLSQEPAHPAMALHAR

[3] = molecular target: T3, Protein FAM134C peptide (18-mer) (human)
T3 peptide: ALVEVLGPYEPLLSRVQA

[4] = molecular target: T4, Calpain-2 catalytic subunit peptide (18-mer) (human)
T4 peptide: AGTLFQDPSFPAIPSALG

[5] = molecular target: T5, Serotransferrin peptide (18-mer) (human)
T5 peptide: NLREGTCPEAPTDECKPV

[6] = molecular target: T6, Eukaryotic translation initiation factor 2-a kinase 3 peptide (18-mer) (human)
T6 peptide: VRISEKFPSSPKALESVT

[7] = molecular target: T7, CDK5 and ABL1 enzyme substrate 1 peptide (18-mer) (human)
T7 peptide: GCIALAAPGTPAAGLAAG

[8] = molecular target: T8, SRA stem-loop–interacting RNA binding protein, mitochondrial peptide (18-mer) (human)
T8 peptide: VQVHTRRPKLPQTSDDEK

[9] = molecular target: T9, Vigilin peptide (18-mer) (human)
T9 peptide: PTYKDAFPPLPEKAACLE

[10] = molecular target: T10, Paxillin-associated protein with ARF GAP activity 3 peptide (18-mer) (human)
T10 peptide: GISQIRPPPLPPQPPSRL

[11] = molecular target: T11, Dynein heavy chain 6 peptide (18-mer) (human)
T11 peptide: EKERPPKPEAPWLPTATW

[12] = molecular target: T12, Large proline-rich protein BAT3 peptide (18-mer) (human)
T12 peptide: QTLGQQVPGFPTAPTRVV

[13] = molecular target: T13, Protein Shroom 3 peptide (18-mer) (human)
T13 peptide: ASDSGRGPQRPDARLLRS

- relative binding strength (% of the strongest interaction of this SH3 domain) [1]: 100%
- relative binding strength (% of the strongest interaction of this SH3 domain) [2]: 88%
- relative binding strength (% of the strongest interaction of this SH3 domain) [3]: 85%
- relative binding strength (% of the strongest interaction of this SH3 domain) [4]: 49%
- relative binding strength (% of the strongest interaction of this SH3 domain) [5]: 49%
- relative binding strength (% of the strongest interaction of this SH3 domain) [6]: 15%
- relative binding strength (% of the strongest interaction of this SH3 domain) [7]: 7%
- relative binding strength (% of the strongest interaction of this SH3 domain) [8]: 7%
- relative binding strength (% of the strongest interaction of this SH3 domain) [9]: 5%
B1: GST-tagged RICS SH3 domain (domain or fragment, human, UniProt A7KAX9 262-320, looked up)
chain: GAAHVIKRYTARAPDELTLEVGDIVSVIDMPPKVLSTWWRGKHGFQVGLFPGHCVELIN

- relative binding strength (% of the strongest interaction of this SH3 domain) [10]: 100%
- relative binding strength (% of the strongest interaction of this SH3 domain) [11]: 95%
- relative binding strength (% of the strongest interaction of this SH3 domain) [12]: 58%
- relative binding strength (% of the strongest interaction of this SH3 domain) [13]: 37%
B2: GST-tagged ARHGAP10 SH3 domain (domain or fragment, human, UniProt A1A4S6 731-786, looked up)
chain: RKARAVYPCEAEHSSELSFEIGAIFEDVQTSREPGWLEGTLNGKRGLIPQNYVKLL
